The nanobody polyreactivity screen of Harvey et al. (2022)

Assay: yeast display, Sf9 membrane polyspecificity reagent, FACS + sequencing; frameworks hold sequencing errors
Procedure, shortened: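 Galactose induction of a Saccharomyces cerevisiae BJ5465 synthetic nanobody display library ran 36–48 hours. The cells were then stained for 1 hour at 4 °C with 10% biotinylated, detergent-solubilized Sf9 membrane reagent, pulled down on streptavidin microbeads and FACS-sorted into low and high (top ~1%) gates on expression and reagent-binding fluorescence. Labels for polyreactivity follow the gate of origin.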

QVQLVESGGGLVQAGGSLRLSCAASGLIFRYYSMAWYRQAPGKERELVAAISKSGDRTYYADSVKGRFTISRDNAKNTVYLEMNSLKPEATGVYYCAADSYPSPNFEDNYWGQGTQVTVSS
polyreactivity (PSR sort gate): low polyreactivity

QVQLVESGGGLVQAGGSLRLSCAASGSTFVPKDMGWNRQAPGKERELVAAISYSGGSTYYADSVKGRFTISRDNAKNTVYLQLNSLKPEDTAVDYCNAEGWYYLTEYGYWGQGTQVTVSS
polyreactivity (PSR sort gate): low polyreactivity

QVQLVESGGGSVQAGGSLRLSCAASGIIFWYYTMGWYRQATGKERELVAAISWSSGITYYADSLKGRFTISRDNAKNTVYLQMNSLKPEDTAVYYCSAGYYKGFTLVRVIFDYWGQGTQVTVSS
polyreactivity (PSR sort gate): low polyreactivity

QVQHVESGGGLVQAGGSLRLTCAATGFTFATYTMGWYRQAPGKERELFAAISSGGNTNYADSVKGRFTISRDNAKNTVYLQMNSLKPEDTAVYYCARGATLLQYYYWGVYEYDSWGQGTQVTVSS
polyreactivity (PSR sort gate): low polyreactivity

QVQLVESGGGLFQAGGSRRLICSASGFTFASNAMGWYRQAPGKERELVAAITSRGGGTYYADSVKGRFTISRDNAKNTVYLQMNSLKPEDTAVYYCNVVYGVRYFNSRGYYYWGQGTQVTVSS
polyreactivity (PSR sort gate): high polyreactivity

QVQLVESGGGLVQAGGSLRLSSAASRSTFTVYAMGWYRQAPGKETELVAAITGGGRTYYADSVKGRFTISRDNAKNTVYLQMNSLKPEDTAVYYCAKKYSWRYARVYSLHFDYWGQGTQVTVSS
polyreactivity (PSR sort gate): high polyreactivity

QVQLVESGGGLVQAVGSLRLSCAASGRTFARNAMGWYRQAPGKERELVAVITSGTSTYYADSVKGRFTISRDYAKNTVYLQMNSLKPEDTAVYYCAARSPGRAGIYYSWGQGTQVTVSS
polyreactivity (PSR sort gate): high polyreactivity

QVQLVESGGGLVQAGGSLRLRGAASGRTFPGYAMGWCRPAPGNERELVATICSADSTNYADSVMGRFTSSRDNAKNTVKLHMKSLKPEDTAVYFCAQRYGRNGAAAQYNVWYRYDYWGQGTQVTVSS
polyreactivity (PSR sort gate): low polyreactivity

QVQLVESGGGLVQAGGSLRLSCAASGSTFRRYAMGWYRPAPGKERELVAAISRSGGTTYYADSVKGRFTISRDNAKNTVYFQMNSLKPEDTAVYYCNARYPVVRYDYWGQGTQVTVSS
polyreactivity (PSR sort gate): high polyreactivity

QVQLVESGGGLVQAGGSLRLSCAASGFIFHKYVMGWYRQAPGKERELVAAISRSGASTYYADSVKGRFTISRDNAKNTVYFQMNSLKPEDTAVYYCAARYRRRVIATRDYWGQGTQVTVSS
polyreactivity (PSR sort gate): high polyreactivity

QVQLVESGGGLVQAGGSLRLSCAASGIIFDSYTMGWYRQAPGKERELVAAISVSGGSTYYADSVKGRFTISRDNAKNTVYLQMNSLKPEDTAVYYCATVPSLPDYDSWGQGTQVTVSS
polyreactivity (PSR sort gate): low polyreactivity

QVHLVESGGGLVQAGGSLRLSCAASGSNFYWNAMGWYRQAPGKESELFAAISSGGRTYYADSLKGRFTISRDNAKNTVYLQLNSLKREDTAFYYCNAAGWIFPSFSPMDYWGQGTQVTVSS
polyreactivity (PSR sort gate): low polyreactivity

QVQLVESGGGLVQAGGSLRLSCAASGIIFNSNAMGWYRQAPGKERELVAAISVSGGSTYYADSVKGRFTISRDNAKNTVYLQMYSLIPEDTAVYYCNARSLYPWRWKKEYGHWGQGTQVTVSS
polyreactivity (PSR sort gate): high polyreactivity

QVQLVESGGGLVQAGGSLRLSCAASGSIFAGNAMGWYRQAPAKERELVAAISRRGGSTYYADSVKGRFTISRDNAKNTVYLQMNSLKPEDTAVSYCNALLRYAYHAAYGYWGQGTQVTVSS
polyreactivity (PSR sort gate): high polyreactivity

QVQLVESGGGLLQAGGSLRISCAASGFPYVMGWYRQAPGKARELVATITSGDSTNYADSVKGRFTISRDNAKNTVYLQMNSLKPEDTAVYYCNARYWGRYYKRVRYDYWGQGTKVTVSS
polyreactivity (PSR sort gate): high polyreactivity

QVQLVESGGGLVQAGGSLRLSCAASARTFYYYAMGWYRQAPGKERELVAAISWSGGRTYYADSVKGRFTISRDNAKNTVYLQMNSLKPEDTAVYYFAVPYPAEGYGGDYWGQGTQVTVSS
polyreactivity (PSR sort gate): low polyreactivity

QVQQQESGGGLVQAGGSLRLSCAASGTIFQLTVMGRYRQAPGKERELVASIDYGGNTNYADSVKGRFTISRDNAKNSVYLQKNSMKPEDTEVYYCEASYESWTTHPYWGQGTQVTVSS
polyreactivity (PSR sort gate): low polyreactivity

QVQLVESAGGLVQAGGSLRLSCAASGFIFYSNAMGWYRQAPGKERELVAGISRGGSTYYADSVKGRFTISRDNAKNTVYLQMNSLKPEDTAVYYCAASPSSYGRYGYWGQGTQVTVSS
polyreactivity (PSR sort gate): low polyreactivity

QVQLVESGGGLVQAGGSLSLSCAASGSIFWYYAMGWYRPAPGKERELVATIDVSAGSTYADSVKGRFTIARDNAKNTVYLQMNSLKPEDTAVYDCNADHYPGEVFYVSSTRYEREYWGQGTQVTVSS
polyreactivity (PSR sort gate): low polyreactivity

QVQLVESGGGLVQAGGSLRLSCAASGRIFGAYAMGWYRQAPGKERELVATITSDGSTDYADSVKGRFTISRDNAKNTVYLQMNSLKPEDTAVYYCAVAYLWRPYDFREFDYWGQGTQVTVSS
polyreactivity (PSR sort gate): low polyreactivity

QVQLVESGGGLVQAGGSLRLSCAASGSTFGVNVMGWYRQAPGKERELVDAISRSGGRTYYADSVKGRFTISRDNAKNTVYLQMNSLKPEDTAVYYCNTRGYDYWGQGTQVTVSS
polyreactivity (PSR sort gate): high polyreactivity

QVQLVESGGGLVKAGGILRLSCAASGSTFWKYAMGWYRQAPGKERELVAAINSGGSTYYADSVKGRFTISRDNAKNTVYLQMNSLKPEDTAVYYCAAVYVDRRKRSYYWGQGTQVTVSS
polyreactivity (PSR sort gate): high polyreactivity

QVQLVESGGGLVQAGGSLRLSCAASGFTFNVNAMGWYRQAPGKERELVATITWSDGSTRYADSVKGRFTISRDNAKNTVYLQMNSLKPEDTAVYYCAAESSECTSGDYDYWGQCTQVTVSS
polyreactivity (PSR sort gate): low polyreactivity

QVQIVESGGALVQAGGSLSLSCAASRSTFYRNDMGWYRQAPGKEREFVAAISFRGGGTYADSVKGRFTISRDNAKITVYLQMNSLKPEDTAVYYCAADHLSYRRRYEYWGQGTQVTVSS
polyreactivity (PSR sort gate): low polyreactivity

QVQLVESGRGLVQAGGSLRLSCAASGLIFGRNAMGWYIQAPGKERECVAANTSGGSTYYADSVKGRFTISRDNAKNSVYLQMNSLKPEDTAVYYCAADVVDLYLLDYWGQGTQVTVSS
polyreactivity (PSR sort gate): low polyreactivity

QVQLVDSGGGLVQAGGSLRLSCSASGIIIKWYTMVWYRQAPGKEREFVAAISYGGGSTSYADSVKGRFTISRDNAKNTVYLQMNSLKPEDTAVYYCAVVWQGAYSRTNYYYWGQGTQVTVSS
polyreactivity (PSR sort gate): low polyreactivity

QVQLVESGGGLVQAGGSLRLSCAASGSIFAYYTMGWYRQAPGKERELVATISSGDITNYADSVKGRFTISRDNAKNTVYLQMNSLKPEDTAVYYCAAAELTSYYRTFIHQDYDYWGQGTQVTVSS
polyreactivity (PSR sort gate): low polyreactivity

QVQLVESGGGLVQAGGSLRLSCAASGSTFLNNAMGWYRQAPGKERELVATITSGGITNYADSVKGRFTISRDNEKNTVYLQMNSLKPEDTAVYYCNADTWGFTYYYWGQGTQVTVSS
polyreactivity (PSR sort gate): low polyreactivity

QVQLVESGGGLVQAGGSLRLSCAASGFTFLSYTMGWYRQEPGKERELVASITASGTRTYYADSVKGRFTISRDNAKNTVYLQMNSLKPDDTAVYYCAARRSGSGSHDYGYWGQGTQVTVSS
polyreactivity (PSR sort gate): low polyreactivity

QDQLVESGGGLVQAGGGLRLSCAASVRTFSKYTMGWYRQAPGKERELVAAISYSGGSTYYADSVKGRFTISRDNAKNTVYLQMNSLKPEDTAVYYCAARASTYKYYYWGQGTQVTVSS
polyreactivity (PSR sort gate): high polyreactivity

QVQLVETGGGLVQAGGSLRLSCAASGFIFYDYAMGWYRQSPGKERELVASISWSSGSTYYADSVKGRFTISRDNAKNTVYLQMNSLKPEDTAVYYCAADGYPLQLYNYWGQGTQVSVSS
polyreactivity (PSR sort gate): low polyreactivity

KVQLVESGGGLVQAGGSLRLSCAASGFIFYYYAMGGYRQAPGKERELVAVLTESGSSTYYADSVKGRFTISRDNAKNSVYLQMNRLKPEDTAVYYCNADFWPYTGKYDYWGQGTQVTVSS
polyreactivity (PSR sort gate): low polyreactivity

QVQLVESGGGLVQAGGSRRLSCAASGRTFWAYAMRCYRQAPGKERELVAAITASGTRTYYADSVKGRFTISRDNAMNTDYLQRNRLKPQDTAGYYCAAERIWWAHAYPTYVANDYWGQGTQGTVSS
polyreactivity (PSR sort gate): high polyreactivity

QVQLVESGGGFVQAGGSLRLSCAASGSTFFTNAKGWYRQAPGKERELVAASRWRGGTYYADSVKGRFTISRDNAKKTVYLQMNSLKPEDTPVYDCATSVKTSFDYWRQGTQVTVSS
polyreactivity (PSR sort gate): low polyreactivity

QVQLVESGGGLVQAGGSLRLSCAASGSIFWYYAMGWYRQAPGKERELDASITRGGSTKYADSVKGRFTISLDNAKNPVYLQMNSLKPEDTAVYYCATTYRLYRVNYDYYWGQGTQVSVSS
polyreactivity (PSR sort gate): high polyreactivity

QVQLVESGGGLVQAGGSLRLSCAASGRTFVPYAMGWYRQAPGKERELVAAISSGGDTNYADSVKGRFTISRDNAKNTVYLQMNSLKPEDTAVYYCAVGGAGSDDYLGQGTQVTVSS
polyreactivity (PSR sort gate): low polyreactivity

QVQLVESGGGLVQAGGSLRLSCAASGSTLALYTMGWYIQAPGKERELVAAISKNGGRTYYADSVKGRFRISRDNAMNTVYLQMNSLKPEDTAVYYCAAASGSYRGYDYWGQCTQVTVSS
polyreactivity (PSR sort gate): high polyreactivity

QVQLVESGGGLVQAGGSLRLSCAASGSTFSSYAMGWYRQAPGKEREFVAAISRSGVRTYYADSVKGRFTISRDNAKNSVYLQMNSLNPEDTVVYYCAAVSSLSYSFPYDYWGQGTQVTVSS
polyreactivity (PSR sort gate): high polyreactivity

QVQLQESGGGLVQAGGSLRLICAASGYISSWYPMGWYRQAPGKEREFVGTIAPGATTYYADSVKGRFTIIRDYEKNTVYLQMNSLKPEDTAVYYCAAGPENNDFYSYWGQGTQVTVSS
polyreactivity (PSR sort gate): low polyreactivity

QVQLVESGGGLVQAGGSLRLSCPASGRTIEGYAMGWYRQATGKERELVAAISRRGGSTYYADSVKGRFTISRDNAKNTVFLQMNSLKPEDTAVYYCAARDASTGAVRYYYWGQGTQVTVSS
polyreactivity (PSR sort gate): high polyreactivity

QVQLVESGGGLVQAGGSLRLSCAASGLIFRHYAMGWYRQAPGKERELVAAIDYSGGSTYYADSVKGRFTISRDNAKNTVYLQMNSQKPEDTAVYYCAADYFWMYYSEYGYWGQGTQVTVSS
polyreactivity (PSR sort gate): low polyreactivity

QVQLVESGGGLVQAGGSLRLSCAASGFIFRWYAMGWYRQAPGKERELVAAITWRGGSTYADSVKGRFTISRDNAKNTVYLQMNSLKPEDTAVCYCAAETHRRYDYWGQGTQVTVSS
polyreactivity (PSR sort gate): high polyreactivity

QVQLVESGGGLVQAGGSLRLSCAASGRTFVRNAMGWYRQAPGKERELVAAISKSGGITYYADSVKGRFTISRDTAKNTVYLQMNSLKPEDTAVYYCAKRTSYYRSGWSHYGYWGQGTQVTVSS
polyreactivity (PSR sort gate): high polyreactivity
